Results: PMC2475692

Experiments:
[1] = biological target: YFP-EF-preIQ-IQ-PCRD (CaV1.3 α1 C-terminal fragment, amino acids 1453–1664) (human); assay: FRET or BRET
[2] = biological target: YFP-EF-preIQ-IQ (CaV1.3 α1 C-terminal fragment, amino acids 1453–1623) (human) (UniProt Q01668); assay: FRET or BRET
Chain of YFP-EF-preIQ-IQ (CaV1.3 α1 C-terminal fragment, amino acids 1453–1623) (human) (Q01668 1468-1638): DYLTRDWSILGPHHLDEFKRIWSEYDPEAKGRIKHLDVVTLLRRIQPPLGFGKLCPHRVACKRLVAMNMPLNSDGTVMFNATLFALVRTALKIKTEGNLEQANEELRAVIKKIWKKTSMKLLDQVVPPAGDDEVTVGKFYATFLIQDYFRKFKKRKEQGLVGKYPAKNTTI

Chain of YFP-EF-preIQ-IQ-PCRD (CaV1.3 α1 C-terminal fragment, amino acids 1453–1664) (human) (Q01668 1453-1664): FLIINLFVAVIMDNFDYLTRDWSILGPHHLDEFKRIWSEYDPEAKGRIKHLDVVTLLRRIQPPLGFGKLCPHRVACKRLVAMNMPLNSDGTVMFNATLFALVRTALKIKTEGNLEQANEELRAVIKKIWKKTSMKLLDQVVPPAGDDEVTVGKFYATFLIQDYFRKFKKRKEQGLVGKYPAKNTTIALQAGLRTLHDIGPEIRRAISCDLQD

For “CFP-labeled calmodulin (from UniProt P0DP23 1-149) (natural protein)”, the N FRET [1] was 0.235 and the N FRET [2] was 0.185.
